The results in this text go back to patent publication US7737158B2, “Processes for regulating blood glucose in a mammal” (Washington University, priority 2005, dated 2010).

“Also recorded” adds a separate entry of the source.

One series concerns wild type males. The experiment in a line: Blood glucose after intraperitoneal injection of recombinant Nampt in fed wild type mice. The series is classed as in vivo, mouse. The settings on record: 1000 pmoles intraperitoneally, fed wild type males, 0, 30, 60 min. As to the method: If the NAD biosynthetic activity of Nampt is responsible for the phenotypes observed in Nampt^+/− mice, the administration of NMN, a product of the Nampt enzymatic reaction, should be able to correct their problems. To test this possibility, the same Nampt^+/− mice that were used for IPGTTs were injected with NMN at a dose of 500 mg/kg body weight intraperitoneally ˜14 hrs prior to IPGTTs. As a control, PBS was injected to the mice ˜14 hrs before conducting previous IPGTTs. […] Because these findings completely contradict the conclusion by Fukuhara et al., the reproducibility of the insulin-mimetic activity of this protein was examined. Here, 1000 pmoles of the bacterially produced recombinant protein of mouse His-tagged Nampt were injected intraperitoneally to fed wild type males. Blood glucose levels were monitored with a glucometer at 0, 30, and 60 min time points after injection.

Series [1] deals with T1, mouse Nampt (Mus musculus, UniProt Q99KQ4). The experiment in a line: HPLC detection of Nampt reaction products. It counts as biochemical. Also noted: expressed in transfected cells; cell extracts or culture supernatant, anti-FLAG immunoprecipitates. The following applies: 37° C. On the procedure: High performance liquid chromatography was used to detect Nampt reaction products. HPLC was performed with Waters 515 pumps and a 2487 detector (Waters, Mass.) with a Supelco LC-18-T column (15 cm×4.6 cm; Supelco, Pa.). The Nampt reaction was conducted at 37° C. for 15 min in 500 μl of reaction buffer (50 mM Tris-HCl [pH 7.5], 10 mM MgCl2, 50 mM nicotinamide, 0.2 mM PRPP) with 50 μg of the recombinant Nampt protein. The reaction was terminated by adding 125 μl of 1 M HClO4. Protein was then precipitated at 18,000 g, and 500 μl of the supernatant was neutralized with 40 μl of 3 M K2CO3. After centrifugation, 100 μl of sample was mixed with 400 μl of Buffer A (50 mM K2PO4/KHPO4, pH 7.0) and loaded into the HPLC system. The products from Nampt reaction were monitored by absorbance at 261 nm.

Series [2] addresses T1, mouse Nampt. The experiment in a line: Enzyme-coupled fluorometric assay, kinetic characterization of recombinant Nampt. The series is classed as biochemical. Also on record: expressed in transfected cells; cell extracts or culture supernatant, anti-FLAG immunoprecipitates. On the procedure:
Enzymatic activities of recombinant Nampt and Nmnat proteins were measured by an enzyme-coupled fluorometric assay (see, e.g., FIG. 4B). In this enzyme-coupled reaction, NAD is converted to NADH by alcohol dehydrogenase, and the fluorescence of NADH is detected in a fluorometer. To establish this assay system, optimal reaction conditions for Nmnat were initially examined by varying ATP and Mg^2+ concentrations and pH of the reaction buffer. The resultant reaction buffer for Nmnat contained 50 mM HEPES [pH 7.4], 0.02% BSA, 12 mM MgCl2, 2 mM ATP, 1.5% ethanol, and 30 μg/ml alcohol dehydrogenase to convert NAD to NADH. To determine the kinetic parameters for Nmnat, 30 ng of purified His-tagged Nmnat and varying concentrations of NMN were added to 1 ml of the reaction buffer. The reactions were run at 37° C. and quenched at six time points by the addition of 250 μl of 0.5 M EDTA. The production of NADH was measured by excitation at 340 nm and emission at 460 nm in a fluorometer. For kinetic characterization of Nampt, 500 ng of His-tagged Nampt and varying concentrations of nicotinamide were reacted at 37° C. in 100 μl of a buffer containing 50 mM Tris-HCl [pH 7.5], 0.02% BSA, 12 mM MgCl2, 2.5 mM ATP, 10 μg/ml His-tagged Nmnat, 0.4 mM phosphoribosyl pyrophosphate (PRPP), 1.5% ethanol, and 30 μg/ml alcohol dehydrogenase. NADH production was measured continuously in a fluorometer.
By using this enzyme-coupled fluorometric assay, kinetic parameters of purified recombinant mouse Nampt and Nmnat for nicotinamide and NMN, respectively, were determined (see, e.g., Table 1). The Lineweaver-Burk plots for these two enzymes are shown, for example, in FIGS. 11A and 11B. […] The Km and Vmax of mouse Nmnat are consistent with previously reported values for human NMNAT-1 (Emanuelli et al., J. Biol. Chem. (2001) 276, 406-412).

The target of series [3] is T1, mouse Nampt. The experiment in a line: Enzyme-coupled fluorometric assay of immunoprecipitated Nampt-FLAG and recombinant Nampt. The series is classed as biochemical. Also on record: expressed in transfected cells; host or cells: mouse NIH3T3 fibroblasts and mouse HIB-1B preadipocytes (differentiated), stably transfected with pCXN2-Nampt-FLAG; cell extracts or culture supernatant, anti-FLAG immunoprecipitates. The settings on record: NMN synthesis, 55 min at 37° C., pH8.5; Nampt amount quantified by Western blotting. On the procedure:
For immunoprecipitation of intracellular Nampt, whole cell extracts were prepared with ice-cold immunoprecipitation (IP) buffer (phosphate buffer saline [pH 7.4], 0.5% NP-40, 1 mM EDTA,1 mM NaF, 10 μM Trichostatin A, 10 mM nicotinamide, 0.5 mM DTT, protease inhibitor cocktail (Roche)) and mixed with agarose beads conjugated with the mouse monoclonal M2 anti-FLAG antibody (F2426, Sigma) for 3-4 hours at 4° C. For immunoprecipitation of extracellular Nampt, HIB-1B culture supernatants were collected after incubating differentiated HIB-1B cells overnight with DMEM without fetal bovine serum but supplemented with 1 μg/ml insulin and 1 nM triodothyronine, filtered through a 0.22-μm PES membrane, concentrated with Amicon Ultra-15 columns (Millipore, MA), and mixed with anti-FLAG beads for 3-4 hours at 4° C. Immunoprecipitates were washed twice with the IP buffer and twice with PBS.
Immunoprecipitates on anti-FLAG beads were incubated in enzymatic reaction buffer (50 mM Tris-HCl (pH8.5), 100 mM NaCl, 0.25 mM Nicotinamide, 10 mM MgSO4, 1.5% Ethanol, 0.5 mM PRPP, 2.0 mM ATP) for 55 min at 37° C. After this reaction, mouse recombinant nicotinamide mononucleotide adenylyltransferase and yeast alcohol dehydrogenase (Sigma) were added at 10 μg/ml as the final concentration for each, and the mixture was incubated for 5 min at 37° C. Supernatants were then collected by spinning down anti-FLAG beads, and autofluorescence of NADH was measured in a Perkin Elmer LS 50B fluorometer (excitation: 340 nm; emission: 460 nm). Immunoprecipitates bound on anti-FLAG beads were extracted with Laemmli's sample buffer, boiled for 5 minutes, and analyzed by Western blotting with anti-Nampt antibodies. The amounts of Nampt used for enzymatic reactions were quantitated compared to the standards of mouse recombinant Nampt.
The immunoprecipitates from the HIB-1B culture supernatants were subjected to enzyme-coupled fluorometric assays (see Revollo et al., J. Biol. Chem., (2004)279, 50754-50763) to compare enzymatic activity of the intracellular and extracellular forms of Nampt. […] The Nampt enzymatic activity of the bacterially produced recombinant Nampt and the intracellular Nampt-FLAG® immunoprecipitated from HIB-1B and NIH3T3 cellular extracts were also measured and their kcat values calculated (see FIG. 16E). […] It is believed that a post-translational modification may be responsible for the altered enzymatic activity of extracellular Nampt produced by brown adipocytes. […] Despite the extensive mass spectrometric analysis of extracellular Nampt, the precise nature of the modification is currently unknown. Taken together, these findings provide strong evidence that Nampt functions as an NAD biosynthetic enzyme both intra- and extracellularly.

Where [4] appears, read: purified His-tagged recombinant mouse Nampt, substrate nicotinamide.

B1: Nampt: Bacterially produced, His-tagged recombinant mouse nicotinamide phosphoribosyltransferase (protein)
chain: MNAAAEAEFNILLATDSYKVTHYKQYPPNTSKVYSYFECREKKTENSKVRKVKYEETVFYGLQYILNKYLKGKVVTKEKIQEAKEVYREHFQDDVFNERGWNYILEKYDGHLPIEVKAVPEGSVIPRGNVLFTVENTDPECYWLTNWIETILVQSWYPITVATNSREQKKILAKYLLETSGNLDGLEYKLHDFGYRGVSSQETAGIGASAHLVNFKGTDTVAGIALIKKYYGTKDPVPGYSVPAAEHSTITAWGKDHEKDAFEHIVTQFSSVPVSVVSDSYDIYNACEKIWGEDLRHLIVSRSTEAPLIIRPDSGNPLDTVLKVLDILGKKFPVTENSKGYKLLPPYLRVIQGDGVDINTLQEIVEGMKQKKWSIENVSFGSGGALLQKLTRDLLNCSFKCSYVVTNGLGVNVFKDPVADPNKRSKKGRLSLHRTPAGNFVTLEEGKGDLEEYGHDLLHTVFKNGKVTKSYSFDEVRKNAQLNIEQDVAPH
In the case of B1, the blood glucose levels entry in the series with wild type males (listed as recombinant Nampt) is given as “no significant effect”; with wild type males (listed as recombinant Nampt protein), “no decrease”. The “synthesis of nicotinamide mononucleotide (NMN) from nicotinamide and PRPP” value is recorded as “robust synthesis” in the series with mouse Nampt [1] and “produced nicotinamide mononucleotide (NMN)” with mouse Nampt [1] (listed as mouse Nampt). Also, in the series with mouse Nampt [1] (substrate specificity), the “synthesis of nicotinic acid mononucleotide (NaMN) from nicotinic acid and PRPP” value is listed as “failed to catalyze; also recorded: did not synthesize”. Moreover, the “catalytic efficiency of Nampt, fold less than that of Nmnat” value with mouse Nampt [2] (Nampt (nicotinamide) versus Nmnat (NMN)) was about 46 fold. Further, in the series with mouse Nampt [2] (setting [4]), the maximal velocity (Vmax) – broadly, the rate approached at saturating substrate – was 0.021 µmol/min/mg. For the same molecule, the kcat (as a rule, the number of substrate molecules converted per active site and unit of time at saturation) in the series with mouse Nampt [2] (setting [4]) was 0.020 s⁻¹; in the series with mouse Nampt [3] it was 0.035 s⁻¹. Moreover, in the series with mouse Nampt [2] (purified His-tagged recombinant mouse Nampt, substrate nicotinamide, 37° C.), the Michaelis-Menten constant (Km) – broadly, the concentration of substrate that gives half-maximal velocity – was determined as 0.92 µM.
